Source: the supplement of paper PMC9942255

What follows are sequences tested on Bacillus subtilis DB104 (SP-AmyQ fusion secretion) (assay: AmyQ secretion efficiency, weighted average sort bin (1 = best secretion, 10 = worst) (bin number (weighted average, 1-10)); higher = lower secretion efficiency).
Procedure, shortened: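 The secretion score gives the average bin number weighted by read frequency and normalised to beads per bin, with low-abundance sequences excluded. Bins were 10 equally populated green/red fluorescence ratio fractions of occupied ~65 nL alginate beads, sorted by large-particle flow cytometry. The beads held fluorescein-starch and about 0.3 cells each of an amyE-integrated B. subtilis DB104 library fusing designed signal peptides to mature AmyQ, and they were grown about 13 h at room temperature and stained with nile red before sorting and Illumina sequencing.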
MHLIRAAGAVCLAVVLIAGCRFNEDQHQFFAEGENT showed an AmyQ secretion efficiency of 4.63. MIAYFGKCLLLVTIMFLGVLFVMQQANHG gave an AmyQ secretion efficiency of 7.39. Work on MKLSVKTRQKTTVAAAAMTAKMYATAKGN yielded an AmyQ secretion efficiency of 7.48. In the case of MKLAKRVSALTPSTTLAITAKTKEL, the AmyQ secretion efficiency is reported as 7.68. Work on MKRFILVLSFLSIIVAYPIQTNASPE yielded an AmyQ secretion efficiency of 2.06. With MNKFLKSNRFLLAAALGISLLASSNFIKASND the AmyQ secretion efficiency was 4.66. Work on MKKTSGTKYKCQSLILSVLAAPPSGAKAESV yielded an AmyQ secretion efficiency of 7.18. MKLAKRINMVSALTPSTTLAITAKAKEL was tested, and the AmyQ secretion efficiency was 7.42. Sequence MKKTIMSFVAVAALSTTAFGAHASLKEI has an AmyQ secretion efficiency of 6.92. With MKSKWMSGLLLVAVGFSFTQVMVHGGET the AmyQ secretion efficiency was 7.46. With MKKEGKQYSRLCLSLSPLVSTNEVFAATT the AmyQ secretion efficiency was 7.68. Sequence MHLIRAAGAVCLAVVLIAGCRFNEDQHQWEGENT has an AmyQ secretion efficiency of 5.73. Work on MKLSVKIAGVLTVAAAAMTAKMYATAEEE yielded an AmyQ secretion efficiency of 6.08. MKIRKIKKKKRKSFGMLISAVPALAAGT showed an AmyQ secretion efficiency of 7.53. MRSKKLWISLLFALTLIFAMAFIAMIAQAAGK gave an AmyQ secretion efficiency of 2. For MKWMCKKCCAAVLLAGGAAQAEAV, the AmyQ secretion efficiency was 5.26. MKRLFISSAVLLSILLPSGQAHAQSA showed an AmyQ secretion efficiency of 2.34. MKKRFFGPIILAFILFTASTAFTAIAGAIAIPS gave an AmyQ secretion efficiency of 4.73. MMKKLFHSTLIVLLFFSFFGVQPIHAAKK showed an AmyQ secretion efficiency of 1.9. MHLIRAAGAVCLAVVLIAGCRKRRRQHQAEGENT gave an AmyQ secretion efficiency of 6.76. With MKSLPYTIALLFCGLIIVSMAAKGHST [wt_52] the AmyQ secretion efficiency was 6.6. MLKKIALTLCPAIVGSLLFFTAPASAHVK was tested, and the AmyQ secretion efficiency was 2.44. For MHLIRAAGAVCLAVVLIAGCRFNEDQHQAEDENT, the AmyQ secretion efficiency was 5.99. Sequence MLKKIALTLCPAIVGSLLFFTGPASAHVS has an AmyQ secretion efficiency of 2.54. MKRLFMKASLVLFAVVFVFAVKGAPKAKAETH was tested, and the AmyQ secretion efficiency was 1.9. With MKSKGSIMACLILFSFTITTFINTETISPFSN the AmyQ secretion efficiency was 7.51. MTKLKMLSMLTVMIASLFIFSSQALAKRK showed an AmyQ secretion efficiency of 4.03. Sequence MKRFLIGAGVAAVILSGWFIADHQTHKQEM has an AmyQ secretion efficiency of 4.69. With MKKKQVMLALTAAAGLGLTALHSAPAIKAAPL the AmyQ secretion efficiency was 4.18. In the case of MNKPTKQRTKLALAAGMTAAAAGGAGTIHAQQP, the AmyQ secretion efficiency is reported as 6.94. In the case of MLTKRLLTIYIMLLGLIAWFPGAAQAAKK, the AmyQ secretion efficiency is reported as 4.2. Sequence MKKGIIRFLLVSFVLFFALSTGITGVQGAPA has an AmyQ secretion efficiency of 4.19. MKKQIITATTAVVLGSTLFAGAASTQSI gave an AmyQ secretion efficiency of 2.06. With MRKVFPLILSAVLFLSCFFGARQTEASASKR the AmyQ secretion efficiency was 2.13. For MKRLLVSLRVWMVFLMNWVTPDRKTKAAAVY, the AmyQ secretion efficiency was 7.79. MAIIIAIIAAVIVIAALITFNVRNYSPG was tested, and the AmyQ secretion efficiency was 7.13. Work on MKKIVSILFMFGLVMRRKRKKPSTVFAADK yielded an AmyQ secretion efficiency of 7.34. In the case of MKWMCSICCAAVLLAGGAMQAEAV, the AmyQ secretion efficiency is reported as 3.69. Work on MKRFLIGAGVAAVILKRWFIARHQTHSQEM yielded an AmyQ secretion efficiency of 7.28. MKRITINITIITMFIAAAVISLTGTAEAAEK gave an AmyQ secretion efficiency of 2.69. For MRMLWRSLALCGLALTLAICIAQAAEP, the AmyQ secretion efficiency was 4.76. Sequence MKKSQYFIVFICFFVLFSVHPIAAAEADS has an AmyQ secretion efficiency of 3.09. MTMLRKIIGWILLLCIIPLFAFTVIPVVTVASGKEV showed an AmyQ secretion efficiency of 4.51. Work on MLKKIALTLCPAIVGSLLFFTAPHSAHVS yielded an AmyQ secretion efficiency of 5.59. MKQGKFSVKKKRKRMLTLVVAPKEKAEAASS was tested, and the AmyQ secretion efficiency was 5.83. Sequence MKKKLKRKKRRSAIVGTTLVVTPAEAATI has an AmyQ secretion efficiency of 6.61. Work on MRKTRRKKKRGLMMFGTITAASASPD yielded an AmyQ secretion efficiency of 5.82. MKKFMNFSSVMLATALFLGLTPAGANAADL showed an AmyQ secretion efficiency of 4.23. Sequence MTKLKMLSMGKRRTASLFIFSSQALAVQY has an AmyQ secretion efficiency of 7.8. MKKLLSTAAGLLLSLTATSVSAHYV was tested, and the AmyQ secretion efficiency was 4.36. With MKKGIIRFLLVSFVLFFALSTGITGVQDAPA the AmyQ secretion efficiency was 6.75. For MMKKLFHSTLIVLLFFSFFGVQPIHAKKR, the AmyQ secretion efficiency was 2.74. MAIIIAIIAAVIVIAALITFNVGTPRNASPG gave an AmyQ secretion efficiency of 8.5. With MKLSVKIAGVLTVAAAAMTAKMYATVKGN the AmyQ secretion efficiency was 6.87. MGMKKKLSLGVASAALGLALVGRRKRKKTWAAFN gave an AmyQ secretion efficiency of 6.59. MFRMIVRMTLPLLIVCLAFSSFSASARAASE was tested, and the AmyQ secretion efficiency was 1.61. MRKKRVITCVMAASLTLGSLLPAGYASAAPS gave an AmyQ secretion efficiency of 2.5. In the case of MKLRKVLTGSVLSLGLLVSASPNFATSP, the AmyQ secretion efficiency is reported as 5.36. MKKRFSGQMMTGLLFGLTSPAFAAEK gave an AmyQ secretion efficiency of 6.38. Sequence MKKRLIAPMLLSAASLAFFARRKRKKAQAAAY has an AmyQ secretion efficiency of 7.44. In the case of MKKALTLCPAIVGSLLFFTAPASAHVS, the AmyQ secretion efficiency is reported as 2.41. Work on MKKRLIAPMLLSAASLAFFAMSGSAQTAAY yielded an AmyQ secretion efficiency of 7.42. MRKYTVIASILLSFLSVLDEDDEDHHESKAFPV was tested, and the AmyQ secretion efficiency was 5.95. Work on MLKKKWMVGLLAGCLAAGSAGFSYNAFATEN yielded an AmyQ secretion efficiency of 4.95. Work on MKTKTLFIFSAILTLSIFAPNEVFAQTA yielded an AmyQ secretion efficiency of 1.58. Work on MKKWMAGLFLAAAVLLCLMVPQQIQGDED yielded an AmyQ secretion efficiency of 8.35. MKWMCSICCAAVLLAGGAGQAEAV showed an AmyQ secretion efficiency of 3.36. Sequence MIVIKRKRKRIIVFLSVIQPQPS has an AmyQ secretion efficiency of 8.52. MLKKIALTLCPAIVGSLLFFTRKKASAHVS gave an AmyQ secretion efficiency of 7.46. Work on MGLGLLLSVAVAASFMSLSISLPGVQAAEG yielded an AmyQ secretion efficiency of 2.94. MKRKLLSSLAISALSLGLLVSGPTTSFAAES gave an AmyQ secretion efficiency of 3.9. In the case of MTKAFLVFLSVVLVTTVFLVKQQESVAQAKQL, the AmyQ secretion efficiency is reported as 5.72. MNKKYFVLIVCIIFTSALFPTFSSVTLAQG was tested, and the AmyQ secretion efficiency was 2.52. MKLAKRVSALTPSTTLAITWKAKEL gave an AmyQ secretion efficiency of 5.85. For MPYLKRVLLLLVTGLFMSLFFLIAVTATASAQTG, the AmyQ secretion efficiency was 1.09. Work on MPYLKRVLLLLVTGLFMSLFAVTATASAQRK yielded an AmyQ secretion efficiency of 2.03. MRPVFPLILSAVLFLSCFFGARQTERSASKR was tested, and the AmyQ secretion efficiency was 6.76. With MKKLCVMMLLFSAIASFPVSAQAKDQ the AmyQ secretion efficiency was 2.86. With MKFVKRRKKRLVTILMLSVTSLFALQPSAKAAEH the AmyQ secretion efficiency was 2.78. Work on MKLWMRKTLVVLFTIVTFGLVSPPAAFMADKP yielded an AmyQ secretion efficiency of 2.2. Sequence MKRFSTAYLLLGILCSAAVFLIGAPSRALGAPV has an AmyQ secretion efficiency of 1.61. In the case of MKRLFMKASLVLFAVVFVFAVKGAIAKAETH, the AmyQ secretion efficiency is reported as 2.52. Sequence MPYLKRVRKLLVTGLFMSLFAVTATASAQTG has an AmyQ secretion efficiency of 1.73. MPYLKRVLLLLVFFLFMFLFSAVTATASAQTG gave an AmyQ secretion efficiency of 1.35. MTKKAWFLPLVCVLLISGWLAPAASASWQTT gave an AmyQ secretion efficiency of 3.5. In the case of MMKRSSLIMMTGLLFGLTSPAFAAEK, the AmyQ secretion efficiency is reported as 3.11. Sequence MGLGKKLSVAVAASFMSLSISLPGVQEAEG has an AmyQ secretion efficiency of 6.02. MKKKRKKFVAVAALSTTAFGAHASAKEI showed an AmyQ secretion efficiency of 6.1. MKRMIVRMTLMMTLPLLIVCLAFSSFSASARAASE was tested, and the AmyQ secretion efficiency was 2.08. MKRQCYWTYQSSRQLVLLPGKALGAVD was tested, and the AmyQ secretion efficiency was 8.11. With MKKLLAAGIIGLLTVSIASPSFEAEK the AmyQ secretion efficiency was 6.63. MLKKIALTLCPAIVGSLLFFTDEDASAHVS showed an AmyQ secretion efficiency of 4.47. MGLGKKLKKKKAASFMSLSISLPGVQAAEG was tested, and the AmyQ secretion efficiency was 7.92. With MKRSISIFITCLLITLLTMGGMIASPASEAGT the AmyQ secretion efficiency was 4.1. MKKRFFGPIILAFILFAGAIDIPS showed an AmyQ secretion efficiency of 6.03.
